Results on one molecule are retold here after US20070253950A1 (Pfizer, published 2007).

This test addresses T1, human RAGE-Fc fusion protein (human, UniProt Q15109 23-344).
T1 construct: amino acids 1-344 of human RAGE appended to the Fc domain of human IgG; also called hRAGE-Fc; huRAGE-Fc
In words: ligand competition ELISA: HMGB1 coated, hRAGE-Fc pre-mixed with antibody, bound hRAGE-Fc detected with anti-huIgG-HRP; blocked ligand HMGB1. How it is done: Wells were washed and blocked as described above and exposed to 100 μl of pre-incubated mixtures of RAGE-Fc or TrkB-Fc (a non-specific Fc control), at 0.1 μg/ml, plus various forms of the indicated antibody preparation (dilutions of immune sera, hybridoma supernatants or purified antibodies) for 1 hour at room temperature.
Background: In an ELISA, binding on a coated surface is turned into a signal by an enzyme label.

B1: XT-H2 (antibody, V domains shown)
VH: QVQLQQSGAELAKPGASVKMSCKASGYTFTTYWMHWVKQRPGQGLYWIGYINPSTGYTEYNQKFKDKATLTADKSSSTAYMQLSSLTSEDSAVYYCARWAGYTIDYWGQGTSVTVSS
VL: DVVLTQTPLSLPVNIGDQASISCKSTKSLLNSDGFTYLDWYLQKPGQSPQLLIYLVSDRFSGVPDRFSGSGSGTDFTLTISRVEAEDLGVYYCFQSNSLPLTFGSGTKLEIK
notes: also called 1hRAGEP3/16
With B1, the “IC50 (read off the curve)” value is about 0.1 µg/mL.
